In data set [1] the target is T1, hARTC1 in the presence of hARTC3 (hARTC1–hARTC3 heterodimer) (Homo sapiens, UniProt P52961).
T1 construct: gene ART1; GST-hARTC1 (N23-C295) with His-hARTC3 (N27-C362), both from E. coli; heterodimer by size exclusion; with Ecto-ADP-ribosyltransferase 3
T1 sequence (P52961 23-295): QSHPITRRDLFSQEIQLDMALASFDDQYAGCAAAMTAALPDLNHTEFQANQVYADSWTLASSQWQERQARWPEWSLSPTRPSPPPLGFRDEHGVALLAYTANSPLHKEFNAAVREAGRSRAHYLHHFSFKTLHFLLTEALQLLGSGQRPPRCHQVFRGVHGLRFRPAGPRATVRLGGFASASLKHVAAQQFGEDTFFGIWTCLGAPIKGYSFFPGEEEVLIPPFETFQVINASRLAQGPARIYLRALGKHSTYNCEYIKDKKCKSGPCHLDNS
T1 sequence (Q13508 27-362 partner): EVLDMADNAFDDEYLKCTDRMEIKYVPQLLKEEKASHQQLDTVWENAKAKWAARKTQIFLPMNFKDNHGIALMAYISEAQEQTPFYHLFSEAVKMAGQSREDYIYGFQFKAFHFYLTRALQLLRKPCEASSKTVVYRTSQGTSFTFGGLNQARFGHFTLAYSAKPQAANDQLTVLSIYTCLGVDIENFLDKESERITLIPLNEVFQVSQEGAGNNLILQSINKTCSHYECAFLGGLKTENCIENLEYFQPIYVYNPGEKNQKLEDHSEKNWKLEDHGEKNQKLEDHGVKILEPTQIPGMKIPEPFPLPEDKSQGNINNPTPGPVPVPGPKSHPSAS
Nature of the data set: etheno-NAD+ fluorescence kinetics. The class given is biochemical. The note with it: 20 mM Tris-HCl pH 8.0, 37°C; hARTC1 with hARTC3 added.

In data set [2] the target is T2, His-hARTC3 (N27–C362) (human, UniProt Q13508 27-362).
T2 construct: human ARTC3 residues 27-362, printed as N27–C362 (N and C read as the N- and C-terminal limits), in pET-15b; also called His-ARTC3 (N27–C362); source: E. coli BL21 (Codon Plus), purified (Ni-chelating Sepharose); not shown: His tag, N-terminal, kept
T2 sequence (looked up): T1 sequence (Q13508 27-362 partner)
Nature of the data set: pull-down; GST-hARTC1 (N23–C295) and His-hARTC3 (N27–C362) purified from E. coli, incubated with Glutathione Sepharose 4B and Ni-chelating Sepharose, 4°C, 2 h; washes in NETN 100; blots with anti-His and anti-GST. The note with it: both partners purified.

Substrate in data set [3]: NC(=O)c1ccc[n+]([C@@H]2O[C@H](COP(=O)(O)OP(=O)(O)OC[C@H]3O[C@@H](n4cnc5c4ncn4ccnc54)[C@H](O)[C@@H]3O)[C@@H](O)[C@H]2O)c1
Nature of the data set: etheno-NAD+ NAD+ hydrolase fluorescence assay, Lineweaver-Burk. Format: biochemical, Homo sapiens. The note with it: 20 mM Tris-HCl pH 8.0, 37°C, 60 min, etheno-NAD+ 0-10 μM, enzyme 10 μg/ml.

For the molecule `NC(=O)c1ccc[n+]([C@@H]2O[C@H](COP(=O)(O)OP(=O)(O)OC[C@H]3O[C@@H](n4cnc5c4ncn4ccnc54)[C@H](O)[C@@H]3O)[C@@H](O)[C@H]2O)c1` [etheno-NAD^+], the “etheno-NAD+ fluorescence kinetics” value in data set [1] was “Enzymatic kinetics for etheno-NAD^+ of hARTC1 in the presence (green) or absence (red)”.

B1: GST-hARTC1 (N23–C295) (domain or fragment, human, UniProt P52961 23-295, looked up)
chain: T1 sequence (P52961 23-295)
notes: human ARTC1 residues 23-295, printed as N23–C295 (N and C read as the N- and C-terminal limits), in pGEX-4T-1; also called GST-ARTC1 (N23–C295); source: E. coli BL21 (Codon Plus), purified (Glutathione Sepharose 4B); not shown: GST, N-terminal, kept
For the molecule B1, the binding result in data set [2] is “binds”. Also, the Km in data set [3] amounted to 11.59 ± 1.57 µM.

B2: hARTC5 (GST-ARTC5 (N23–C291)) (Homo sapiens) (protein)
chain: VPILPLGLAPDTFDDTYVGCAEEMEEKAAPLLKEEMAHHALLRESWEAAQETWEDKRRGLTLPPGFKAQNGIAIMVYTNSSNTLYWELNQAVRTGGGSRELYMRHFPFKALHFYLIRALQLLRGSGGCSRGPGEVVFRGVGSLRFEPKRLGDSVRLGQFASSSLDKAVAHRFGNATLFSLTTCFGAPIQAFSVFPKEREVLIPPHEVFLVTRFSQDGAQSLVTLWSYNQTCSHFNCAYLGGEKRRGCVSAPGALGTGDLHMTKRHLQQP
On to B2, for which, in data set [3], the Km amounted to 56.78 ± 11.90 µM.

By Km is commonly meant the substrate concentration at which the rate is half of its maximum.

(Values after publication PMC10928986, “ARTC1-mediated VAPB ADP-ribosylation regulates calcium homeostasis” (Journal of Molecular Cell Biology, 2023).)
